Legend:
MS2 coat protein [1] = test: apparent KD of MS2 coat protein, switch ON state; designed switch direction (-1 OFF switch, 1 ON switch): 1; higher = weaker reporter binding; conditions: FMN input: 0 or 200 uM; Eterna round: R93 (includes R88 designs)
How it was run: (§1)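 Apparent KD is reported per design as the median of normalised binding-curve fits across its clusters. The RNA switches were made by on-chip transcription from Illumina sequencing clusters. SNAP-549-labelled MS2 coat protein was then added in twofold steps (0.7 or 1.5 nM to 3 µM; 0.8–1.5 h to 10–20 min per step) in 100 mM Tris-HCl pH 7.5, 80 mM KCl, 4 mM MgCl2, without or with constant ligand.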

MS2 coat protein [2] = test: apparent KD of MS2 coat protein, switch OFF state (with FMN for OFF switches, without FMN for ON switches); designed switch direction (-1 OFF switch, 1 ON switch): 1; higher = weaker reporter binding; conditions: FMN input: 0 or 200 uM; Eterna round: R93 (includes R88 designs)
How it was run: as §1

Sequence	apparent KD of MS2 coat protein (MS2 coat protein [1])	apparent KD of MS2 coat protein (MS2 coat protein [2])
AAAGUACAUGAGGAUCACCCAUGUUGGAACAAAGCAGGAUAUGUACAAAAGGAAAUAAAUACAGAAGGGCUAAGAA [Same State #2]	20 nM	32.9 nM
GAUAGACAUGAGGAUCACCCAUGUAGAAUUAUGGGAGGAUAUACAAAGACGAGAGUCAGAGUAGAAGGCCUAGGAG [salish99-ss1-158]	28.1 nM	69.2 nM
CCGAUGGUAUACUAGGAUAUGGGCGCCCUUACAUGAGGAUCACCCAUGUUAUCACAAAGCCGCGGCCAGAAGGAGUUCAUGGGAG [Tieronsove]	94.7 nM	122 nM
AUAUAUAUAAGACAGGAUAUCCGAAAGUAAACAUGAGGAUCACCCAUGUAAAGAAAGAAACUCAUGGAGAAGGGUCAAUAUAUAU [Mat - Same State 2 - Tesla mod - D84]	22.4 nM	65.6 nM
AGCCGCACUAUACAGGAUAUCACAAUAUCGACAUGAGGAUCACCCAUGUGACUGGCACCAGUCGGUGAGAAGGGUGAAGUGCGGC [Raarati]	90.6 nM	421 nM
CGAAAGGAGAGAGAGGAUAUCCAAAGGAAAACAUGAGGAUCACCCAUGUAGAAGGUAGGAGAUUGGGAGAAGGCUCAAGAGAUAU [salish99-ss2-153]	20 nM	44.2 nM
GGAGUACAUGAGGAUCACCCAUGUUGGAACGAAGUAGGAUAUGUACAAUAUUAAAUAAAAACAGAAGGACUAAUAA [Meow]	30.4 nM	55.1 nM
AAAGACAUAGUUCAGGAUAUGGUAAUAGUCACAUGAGGAUCACCCAUGUUCAUUUAUAUGAGCGAUCAGAAGGGAGGUAAAAAAA [SameState2 Malc#15]	182 nM	244 nM
AAAAAACAUGAGGAUCACCCAUGUGAGAACAUGGGAGGAUAUACGAGGACGAGAGUCAUAGUAGAAGGCCUAAAAA [Garnet 67]	109 nM	65.6 nM
AAAAAAAAAACUGAGGAUAUGAAAUAAUAGACAUGAGGAUCACCCAUGUUUUCGGUCGAAAAAAUGCAGAAGGCAGAAAAAAAAAA [JR_SameState2_Sub3]	19.4 nM	23.8 nM
CAUCAUGCGCCUAAGGAUAUGUCUCACAAGACAUGAGGAUCACCCAUGUAGACAAAAUAAGCGAUGCAGAAGGUGGAGCGCAUGC [Rasoer]	83.1 nM	348 nM
AAAAAACAUGAGGAUCACCCAUGUAAAAAUAUCACAGGAUAUGGAAACACGAAAGUGAAACCAGAAGGGUGAAAAG [77%, Mat - Mod of Eli, 12]	20.1 nM	44.1 nM
AAAUAAAGGACUGAGGAUAUACCACAUGAAACAUGAGGAUCACCCAUGUUGAAAAACAAAGGGUGGUAGAAGGUAGUCCACAAAC [Same State 2.5a ( so lets mod hyphema)]	17.2 nM	29.3 nM
AGAAAUAAAAUGGAGGAUAUCCAAAAGAAAACAUGAGGAUCACCCAUGUAAAAGAAAAUAAAAUGGGAGAAGGCCAAAAAUAAAG	23 nM	47.2 nM
AUAGGGACGUCGGAGGAUAUUCGAUGUAAAACAUGAGGAUCACCCAUGUGAAUAAAAUAAACAUGGAAGAAGGCCGACGUGCCAU [SS 2 M 54]	10.3 nM	13.3 nM
AAAUAAAUGACUAAGGAUAUCUCUGAGAAAACAUGAGGAUCACCCAUGUAAUAAUAAAAAGGGUGAGAGAAGGUAGUCAACAAAC [Same State 2.1 (Pariah 4 -changed stack on 9nt hairpin)]	18 nM	68 nM
AAAGUACAUGAGGAUCACCCAUGUUGAAAAAAUCGAGGAUAUGCGAAAAAAAAAAAAAAAGCAGAAGGUGAAAAAA [I 'NO' this state well 2]	24.4 nM	38.6 nM
CAUCAUGCGCCUAAGGAUAUGUCUCACAAGACAUGAGGAUCACCCAUGUAGAAUAAAUAAAUGAUGCAGAAGGUGGAGUGCAUGC [Rierre]	72.1 nM	334 nM
AAAUAUAAAAGAUAGGAUAUACUAAAAUAAACAUGAGGAUCACCCAUGUAAAAAAAAAAACUCAUGUAGAAGGAUCAAAUAUAAA [ss2 8th]	33.4 nM	38.1 nM
AGGAGACAUGAGGAUCACCCAUGUGAGAAGAGGCGAGGAUAUCGAAAAAAAAAAAAAAAACGAGAAGGCGCGAGAA [SameState1]	35.4 nM	58.2 nM
GAACCACAUGAGGAUCACCCAUGUCUAAGAAUGGGAGGAUAUGCACAAAAGGAAAUAACUGCAGAAGGCCUACGAA [62%, Redo, 2]	23.2 nM	129 nM

Reference: the supplement of paper PMC9170038
